Target: T1, IRAK (UniProt P51617 1-712, limits assumed)
T1 construct: Overexpressed in HEK293 cells and detected by western blotting with anti-IRAK; No tag is stated; also called IL-1 receptor associated Kinase; IRAK1
Assay: co-immunoprecipitation from transfected HEK293 cells: anti-HA IP, anti-IRAK western blot
Method: HEK 293 cells were transfected with a 5 x NF-KB reporter gene plasmid and co-transfected with plasmids encoding MAL-1 of SEQ ID NO:2 or MyD88 and increasing concentrations of IRAK. Luciferase reporter gene activity was measured. HEK293 cells were transfected with HA-MAL-1 and IRAK and the resulting overexpressed proteins were immunoprecipitated using an anti-HA antibody to isolate MAL-1 complexes and interactions were detected by western blotting to detect anti-IRAK. IRAK could not be detected in the anti-HA-MAL immunoprecipitates. HEK293 cells were transfected with AU-1-MyD88 and IRAK and the resulting overexpressed proteins were immunoprecipitated using an anti-AU1 antibody to isolate MyD88 complexes and interactions were detected by western blotting for anti-IRAK. IRAK was detected in the anti-Aul-MyD88 immunoprecipitates.

T1 sequence (P51617 whole entry): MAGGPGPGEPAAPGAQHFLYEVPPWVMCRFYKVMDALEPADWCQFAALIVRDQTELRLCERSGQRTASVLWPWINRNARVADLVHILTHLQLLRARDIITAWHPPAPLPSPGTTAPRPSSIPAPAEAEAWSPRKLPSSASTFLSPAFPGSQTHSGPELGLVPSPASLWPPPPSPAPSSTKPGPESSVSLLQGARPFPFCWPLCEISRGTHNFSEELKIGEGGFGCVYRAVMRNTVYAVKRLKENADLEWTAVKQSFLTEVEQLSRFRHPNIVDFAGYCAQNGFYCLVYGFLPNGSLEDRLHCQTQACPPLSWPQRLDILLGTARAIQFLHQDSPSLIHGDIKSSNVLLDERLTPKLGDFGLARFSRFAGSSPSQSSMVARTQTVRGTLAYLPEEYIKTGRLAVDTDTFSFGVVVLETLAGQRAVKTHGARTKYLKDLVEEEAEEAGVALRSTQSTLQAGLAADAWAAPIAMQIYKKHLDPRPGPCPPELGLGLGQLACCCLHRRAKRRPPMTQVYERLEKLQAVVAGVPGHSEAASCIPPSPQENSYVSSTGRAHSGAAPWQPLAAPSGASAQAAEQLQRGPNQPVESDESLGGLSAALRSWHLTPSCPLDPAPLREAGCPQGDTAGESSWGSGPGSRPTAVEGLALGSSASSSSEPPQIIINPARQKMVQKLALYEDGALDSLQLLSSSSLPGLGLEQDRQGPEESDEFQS

binding result: no binding
B1: full-length labelled MAL-1 (HA-MAL-1) (other, not shown: small tags and cut ends)
chain: MASSTSLPAPGSRPKKPLGKMADWFRQTLLKKPKKRPNSPESTSSDASQPTSQDNPLPPSLSSVTSPSLPPTHASDSGSSRWSKDYDVCVCHSEEDLVAAQDLVSYLEGSTASLRCFLQLRDATPGGAIVSELCQALSSSHCRVLLITPGFLQDPWCKYQMLQALTEAPGAEGCTIPLLSGLSRAAYPPELRFMYYVDGRGPDGGFRQVKEAVMRCKLLQEGEGERDSATVSDLL
notes: Overexpressed in HEK293 cells; also called tagged MAL-1
